The target in the test is human stem cell factor isoform SCF248 (human, UniProt P21583 26-273). Nature of the test: flow cytometry on S1/S14 hSCF248 cells; printed as BC50 (50% maximal binding).
Chain of human stem cell factor isoform SCF248 (P21583 26-189): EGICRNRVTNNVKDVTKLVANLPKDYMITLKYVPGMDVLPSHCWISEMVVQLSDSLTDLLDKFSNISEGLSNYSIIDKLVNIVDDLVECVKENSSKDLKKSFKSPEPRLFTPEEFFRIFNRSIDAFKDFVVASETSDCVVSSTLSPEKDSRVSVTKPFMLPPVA

B1: 5H10 VH3/VK3 (antibody, human IgG4, V domains shown)
VH: QVQLVQSGAEVKKPGSSVKVSCKSSGYAFSSYWMNWVRQRPGQGLEWIGQIYPGDGDTHYNGKFKGKATLTADKSTSTAYMELSSLRSEDTAVYFCSSSNWVGSYWGQGTLVTVSS
VL: DVVMTQSPLSLPVTLGQPASISCKSSQSLLESDGKTYLNWLQQRPGQSPRRLIYLVSRLDSGVPDRFSGSGSGTDFTLKISRVEAEDVGVYYCWQGTHLPQTFGGGTKVEIK
notes: Humanized; only variable regions are tied to the name
The molecule B1 showed an EC50 of 0.9 µg/mL.

The values are drawn from patent US20220340655A1 (OPSIDIO, published 2022).
